Source: patent US20170306031A1 (NGM BIOPHARMACEUTICALS, published 2017)
Like-named read-outs stand apart in the source and are kept apart here.

T1: human GFRAL expressed on cells (human, UniProt Q6UXV0 20-394)
T1 sequence: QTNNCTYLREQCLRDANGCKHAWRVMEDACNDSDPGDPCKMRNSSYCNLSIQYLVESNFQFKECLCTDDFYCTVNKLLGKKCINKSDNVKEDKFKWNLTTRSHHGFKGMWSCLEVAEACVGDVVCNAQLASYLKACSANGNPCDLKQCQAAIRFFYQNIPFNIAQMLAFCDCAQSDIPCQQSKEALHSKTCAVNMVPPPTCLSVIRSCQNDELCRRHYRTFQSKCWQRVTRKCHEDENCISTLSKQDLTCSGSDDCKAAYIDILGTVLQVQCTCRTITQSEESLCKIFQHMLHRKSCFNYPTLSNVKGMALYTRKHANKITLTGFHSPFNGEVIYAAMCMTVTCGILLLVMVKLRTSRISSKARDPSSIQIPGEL

T2: mouse GFRAL expressed on cells (mouse, UniProt Q6SJE0 20-393)
T2 sequence: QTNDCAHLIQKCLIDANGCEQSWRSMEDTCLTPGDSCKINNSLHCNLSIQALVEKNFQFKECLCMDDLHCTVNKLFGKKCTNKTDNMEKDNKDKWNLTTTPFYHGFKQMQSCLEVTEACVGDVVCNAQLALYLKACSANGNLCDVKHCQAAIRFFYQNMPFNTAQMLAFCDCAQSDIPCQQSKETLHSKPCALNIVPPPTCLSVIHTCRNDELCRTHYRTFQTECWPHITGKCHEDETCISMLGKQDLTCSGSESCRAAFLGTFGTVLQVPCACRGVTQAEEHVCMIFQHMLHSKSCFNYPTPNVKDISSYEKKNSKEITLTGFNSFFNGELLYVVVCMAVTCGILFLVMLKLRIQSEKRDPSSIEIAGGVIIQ

T3: human GFRAL (analyte in Biacore assays) (human, UniProt Q6UXV0 19-351, limits assumed)
T3 construct: injected in solution over captured antibody; also called hGFRAL
T3 sequence: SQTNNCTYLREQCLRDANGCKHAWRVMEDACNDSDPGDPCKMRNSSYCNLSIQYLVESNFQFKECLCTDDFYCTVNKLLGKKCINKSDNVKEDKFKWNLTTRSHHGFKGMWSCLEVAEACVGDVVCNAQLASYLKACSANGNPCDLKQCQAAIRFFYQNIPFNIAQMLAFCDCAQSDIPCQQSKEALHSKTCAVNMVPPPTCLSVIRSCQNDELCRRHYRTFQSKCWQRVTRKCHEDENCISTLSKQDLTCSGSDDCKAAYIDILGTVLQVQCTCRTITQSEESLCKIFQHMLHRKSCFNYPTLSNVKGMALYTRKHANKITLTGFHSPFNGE

T4: mouse GFRAL (analyte in Biacore assays) (mouse, UniProt Q6SJE0 20-349, limits assumed)
T4 construct: injected in solution over captured antibody
T4 sequence: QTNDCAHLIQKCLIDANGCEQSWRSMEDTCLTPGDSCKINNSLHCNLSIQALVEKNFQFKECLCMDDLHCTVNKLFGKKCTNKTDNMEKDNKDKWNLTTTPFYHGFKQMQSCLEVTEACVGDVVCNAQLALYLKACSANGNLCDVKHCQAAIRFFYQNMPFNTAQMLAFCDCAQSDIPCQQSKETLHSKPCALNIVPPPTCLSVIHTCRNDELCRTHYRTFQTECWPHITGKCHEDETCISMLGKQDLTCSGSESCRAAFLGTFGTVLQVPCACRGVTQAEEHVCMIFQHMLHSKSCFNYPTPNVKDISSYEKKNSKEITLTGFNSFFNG

T5: GFRα1 (UniProt P56159 25-429, limits assumed)
T5 construct: also called GNFR alpha 1; receptor GFRα1
T5 sequence (looked up): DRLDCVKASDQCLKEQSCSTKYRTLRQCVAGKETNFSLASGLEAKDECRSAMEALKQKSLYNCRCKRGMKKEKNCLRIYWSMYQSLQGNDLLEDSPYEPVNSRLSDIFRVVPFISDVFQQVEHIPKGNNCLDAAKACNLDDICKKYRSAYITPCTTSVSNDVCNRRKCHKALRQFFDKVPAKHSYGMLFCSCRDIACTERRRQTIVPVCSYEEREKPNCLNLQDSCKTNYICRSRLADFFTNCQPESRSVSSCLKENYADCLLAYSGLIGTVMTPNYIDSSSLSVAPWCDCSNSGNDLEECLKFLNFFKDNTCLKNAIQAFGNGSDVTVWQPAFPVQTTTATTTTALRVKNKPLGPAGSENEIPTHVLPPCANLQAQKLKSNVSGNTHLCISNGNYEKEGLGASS


Assays:
[1] = molecular target: T1, human GFRAL expressed on cells; assay: cell-based or functional assay
[2] = molecular target: T2, mouse GFRAL expressed on cells; assay: cell-based or functional assay
[3] = molecular target: T1, human GFRAL expressed on cells; assay: cell-based or functional assay; remark: listed apart in the source
[4] = molecular target: T1, human GFRAL expressed on cells; assay: cell-based or functional assay; remark: listed apart in the source
[5] = molecular target: T1, human GFRAL expressed on cells; assay: cell-based or functional assay; remark: listed apart in the source
[6] = molecular target: T3, human GFRAL (analyte in Biacore assays); assay: Biacore SPR, antibody captured, GFRAL injected
[7] = molecular target: T4, mouse GFRAL (analyte in Biacore assays); assay: Biacore SPR, antibody captured, GFRAL injected
[8] = molecular target: T3, human GFRAL (analyte in Biacore assays); assay: Biacore SPR, antibody captured, human GFRAL injected
Protocol: Exemplary humanized anti-GFRAL antibodies identified in Example 6 were assayed for their binding affinity to human GFRAL. Binding affinity measurements were made in Biacore based assays. For example, equilibrium dissociation constant (KD) measurements were carried out with purified antibodies to evaluate their binding to human GFRAL. Using methods described in Example II, anti-mouse Fc antibody (Sigma-Aldrich, St. Louis, Mo.) was immobilized on all four flow cells of a CM5 chip using amine coupling reagents (GE Healthcare LifeSciences, Piscataway, N.J.). Purified humanized anti-GFRAL antibodies were captured (˜100 RUs) on flow cells 2, 3 and 4 using flow cell 1 as a reference. This was followed by injection of human GFRAL in PBS-P buffer) at a flow rate of 70 μL/min and the binding kinetics were evaluated at 25° C.

[9] = molecular target: T5, GFRα1; assay: SPR, GFRα1 on chip surface (FIGS. 13A and 13B)
[10] = molecular target: T1, human GFRAL expressed on cells; assay: cell-based or functional assay; remark: listed apart in the source

| Binder | IC50, ELK1-luciferase reporter (hGFRAL/hRET) [1] [nM] | IC50, ELK1-luciferase reporter (mGFRAL/mRET) [2] [nM] | IC50, ERK phosphorylation in U2OS hGFRAL/hRET cells [3] [nM] | IC50, ELK1-luciferase reporter (hGFRAL/hRET) [4] [nM] | IC50, ERK phosphorylation in U2OS hGFRAL/hRET cells [5] [nM] | Kd [6] [nM] | koff [6] [s⁻¹] | Kd [7] [nM] | koff [7] [s⁻¹] | Kd [8] [nM] | binding result [9] | IC50, ELK1-luciferase reporter (hGFRAL/hRET) [10] [nM] |
| --- | --- | --- | --- | --- | --- | --- | --- | --- | --- | --- | --- | --- |
| humanized anti-GFRAL antibody HC-344e/LC-344h (antibody, IgG1, V domains shown, humanized 3P10; also called h3P10) VH: QVQLVQSGAEVKKPGSSVKVSCKASGYTFTDYGVIWVRQAPGQGLEWMGWINTYTGEPTYADDLKGRVTFTADESTSTAYMELSSLRSEDTAVYYCARRYGPEDIDYWGQGTTVTVSS VL: DVVLTQSPLSLPVTLGQPASISCRASESVDNYGISFMSWFQQRPGQSPRLLIYAASHQGSGVPDRFSGSGSGTDFTLKISRVEAEDVGVYFCLQSKEVPWTFGGGTKVEIK | – | – | – | 6.95 | 3.3 | – | – | – | – | < 0.01 | no binding | – |
| humanized anti-GFRAL antibody HC-344h/LC-344h (antibody, IgG1, V domains shown, humanized 3P10) VH: QIQLVQSGAEVKKPGSSVKVSCKASGYTFTDYGVIWVRQAPGQGLKWMGWINTYTGEPTYADDLKGRVTFTADESTSTAYMELSSLRSEDTAVYYCARRYGPEDIDYWGQGTTVTVSS VL: DVVLTQSPLSLPVTLGQPASISCRASESVDNYGISFMSWFQQRPGQSPRLLIYAASHQGSGVPDRFSGSGSGTDFTLKISRVEAEDVGVYFCLQSKEVPWTFGGGTKVEIK | – | – | – | 5.7 | 2.18 | – | – | – | – | < 0.01 | – | – |
| humanized anti-GFRAL antibody HC-344a/LC-344c (antibody, IgG1, V domains shown, humanized 3P10) VH: QVQLVQSGAEVKKPGSSVKVSCKASGYTFTDYGVIWVRQAPGQGLEWMGWINTYTGEPTYADDLKGRVTITADESTSTAYMELSSLRSEDTAVYYCARRYGPEDIDYWGQGTTVTVSS VL: DIVLTQSPLSLPVTLGQPASISCRASESVDNYGISFMSWFQQRPGQSPRLLIYAASHQGSGVPDRFSGSGSGTDFTLKISRVEAEDVGVYFCLQSKEVPWTFGGGTKVEIK | – | – | – | 7.26 | 5.13 | – | – | – | – | 0.012 | – | – |
| humanized anti-GFRAL antibody HC-344h/LC-344c (antibody, V domains shown, humanized 3P10) VH: QIQLVQSGAEVKKPGSSVKVSCKASGYTFTDYGVIWVRQAPGQGLKWMGWINTYTGEPTYADDLKGRVTFTADESTSTAYMELSSLRSEDTAVYYCARRYGPEDIDYWGQGTTVTVSS VL: DIVLTQSPLSLPVTLGQPASISCRASESVDNYGISFMSWFQQRPGQSPRLLIYAASHQGSGVPDRFSGSGSGTDFTLKISRVEAEDVGVYFCLQSKEVPWTFGGGTKVEIK | – | – | – | 29.4 | 15.1 | – | – | – | – | < 0.01 | – | – |
| antibody designated 5F12 (antibody, V domains shown, mouse hybridoma monoclonal; also called 5F12 Hybridoma) VH: QVQLKQSGTELVRPGASVKLSCKASGYTFTDYYINWVKQRPGQGLEWIARIYPGNGNTYHNEKFKGKATLTAEKSSSTAYMQLSSLTSEDSAVYFCAREGLYYDYDRYFDYWGQGTALTVSS VL: NIVLTQSPASLAVSLGQRATISCRASESVDTYGNSFMHWYQQKPGQPPKLLIYLASNLESGVPARFSGSGSRTDFTLTIDPVEADDAATYYCHQNNEDPPAFGGGTKLEIK | 0.834 | 6.28 | 0.06 | – | – | < 0.1 | ~1e-05 | 2.2 | 0.0009 | 0.038 | – | 5.4 |

Next, values leading:

| IC50, ELK1-luciferase reporter (hGFRAL/hRET) [1] [nM] | IC50, ELK1-luciferase reporter (mGFRAL/mRET) [2] [nM] | IC50, ERK phosphorylation in U2OS hGFRAL/hRET cells [3] [nM] | IC50, ELK1-luciferase reporter (hGFRAL/hRET) [4] [nM] | IC50, ERK phosphorylation in U2OS hGFRAL/hRET cells [5] [nM] | Kd [6] [nM] | koff [6] [s⁻¹] | Kd [7] [nM] | koff [7] [s⁻¹] | Kd [8] [nM] | binding result [9] | IC50, ELK1-luciferase reporter (hGFRAL/hRET) [10] [nM] | Binder |
| --- | --- | --- | --- | --- | --- | --- | --- | --- | --- | --- | --- | --- |
| 4.09 | 1.03 | 0.08 | 4.02 | 5.46 | < 0.1 | ~1e-05 | < 0.1 | ~1e-05 | < 0.01 | – | – | antibody designated 3P10 (antibody, V domains shown, mouse hybridoma monoclonal; also called 3P10 Hybridoma; m3P10) VH: QIQLVQSGPELKKPGETVKISCKASGYTFTDYGVIWVKQAPGKALKWMGWINTYTGEPTYADDLKGRFAFSLETSASSASLQINNLKNEDTATYFCARRYGPEDIDYWGQGTTLTVSS VL: not shown |
| – | – | – | 4.63 | 5.02 | – | – | – | – | < 0.01 | – | – | humanized anti-GFRAL antibody HC-344a/LC-344h (antibody, IgG1, V domains shown, humanized 3P10) VH: QVQLVQSGAEVKKPGSSVKVSCKASGYTFTDYGVIWVRQAPGQGLEWMGWINTYTGEPTYADDLKGRVTITADESTSTAYMELSSLRSEDTAVYYCARRYGPEDIDYWGQGTTVTVSS VL: DVVLTQSPLSLPVTLGQPASISCRASESVDNYGISFMSWFQQRPGQSPRLLIYAASHQGSGVPDRFSGSGSGTDFTLKISRVEAEDVGVYFCLQSKEVPWTFGGGTKVEIK |
